According to PMC2397435 (2008):

T1: GAL4 DBD-p9 EIAVUK, P69732
T1 chain: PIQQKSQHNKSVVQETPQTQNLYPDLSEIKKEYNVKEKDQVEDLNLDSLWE

T2: Gal4 DBD-HIV-1 p6 (wild type), P12493
T2 chain: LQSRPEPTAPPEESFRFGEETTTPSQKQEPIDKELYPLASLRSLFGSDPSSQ


Key:
[1] = target: p9 p9 (Equine infectious anemia virus) (UniProt P69730); test: SPR; settings: cited from earlier work
[2] = target: T1, GAL4 DBD-p9 EIAVUK, P69732; test: yeast two-hybrid, β-galactosidase assay; settings: chain shown with the change;; parent: est. 1.2; read off a plot
[3] = target: T2, Gal4 DBD-HIV-1 p6 (wild type), P12493; test: yeast two-hybrid, β-galactosidase assay; settings: chain shown with the change;; parent: est. 0.85; read off a plot

ALIX deleted from PRR, sequence (Q8WUM4 2-868, stated change not applied): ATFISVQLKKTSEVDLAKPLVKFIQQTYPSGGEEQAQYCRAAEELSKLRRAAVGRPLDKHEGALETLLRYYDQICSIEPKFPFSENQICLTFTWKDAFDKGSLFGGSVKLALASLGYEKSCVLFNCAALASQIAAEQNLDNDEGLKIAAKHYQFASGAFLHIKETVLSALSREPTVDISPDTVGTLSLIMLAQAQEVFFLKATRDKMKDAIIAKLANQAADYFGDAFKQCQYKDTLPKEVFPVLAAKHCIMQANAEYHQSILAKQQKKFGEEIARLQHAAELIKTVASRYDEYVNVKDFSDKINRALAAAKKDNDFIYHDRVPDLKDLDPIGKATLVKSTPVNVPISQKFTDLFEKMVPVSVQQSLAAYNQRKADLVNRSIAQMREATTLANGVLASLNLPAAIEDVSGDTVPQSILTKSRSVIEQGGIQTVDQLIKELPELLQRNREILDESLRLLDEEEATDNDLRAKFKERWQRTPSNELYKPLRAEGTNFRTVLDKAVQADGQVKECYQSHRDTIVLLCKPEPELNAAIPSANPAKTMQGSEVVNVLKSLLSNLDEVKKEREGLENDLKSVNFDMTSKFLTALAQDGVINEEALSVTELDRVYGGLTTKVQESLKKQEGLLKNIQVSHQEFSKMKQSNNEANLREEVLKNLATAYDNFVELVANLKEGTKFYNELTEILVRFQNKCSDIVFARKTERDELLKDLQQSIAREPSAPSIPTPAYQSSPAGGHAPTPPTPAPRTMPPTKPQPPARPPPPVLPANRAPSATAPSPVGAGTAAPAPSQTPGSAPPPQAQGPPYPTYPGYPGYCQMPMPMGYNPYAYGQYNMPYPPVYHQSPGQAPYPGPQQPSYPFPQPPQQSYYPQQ

Molecule | Kd [1] [nM] | other: relative β-Gal activity (relative to ALIX wild type = 1) [2] | other: relative β-Gal activity (relative to ALIX wild type = 1) [3]
ALIX deleted from PRR (from UniProt Q8WUM4) | 1200 | – | –
Gal4 AD-ALIXΔ541–582, Q8WUM4-1 V509A (protein) MATFISVQLKKTSEVDLAKPLVKFIQQTYPSGGEEQAQYCRAAEELSKLRRAAVGRPLDKHEGALETLLRYYDQICSIEPKFPFSENQICLTFTWKDAFDKGSLFGGSVKLALASLGYEKSCVLFNCAALASQIAAEQNLDNDEGLKIAAKHYQFASGAFLHIKETVLSALSREPTVDISPDTVGTLSLIMLAQAQEVFFLKATRDKMKDAIIAKLANQAADYFGDAFKQCQYKDTLPKEVFPVLAAKHCIMQANAEYHQSILAKQQKKFGEEIARLQHAAELIKTVASRYDEYVNVKDFSDKINRALAAAKKDNDFIYHDRVPDLKDLDPIGKATLVKSTPVNVPISQKFTDLFEKMVPVSVQQSLAAYNQRKADLVNRSIAQMREATTLANGVLASLNLPAAIEDVSGDTVPQSILTKSRSVIEQGGIQTVDQLIKELPELLQRNREILDESLRLLDEEEATDNDLRAKFKERWQRTPSNELYKPLRAEGTNFRTVLDKAVQADGQAKECYQSHRDTIVLLCKPEPELNAAIPSANPAKTMQGSEVVNVLKSLLSNLDEVKKEREGLENDLKSVNFDMTSKFLTALAQDGVINEEALSVTELDRVYGGLTTKVQESLKKQEGLLKNIQVSHQEFSKMKQSNNEANLREEVLKNLATAYDNFVELVANLKEGTKFYNELTEILVRFQNKCSDIVFARKTERDELLKDLQQSIAREPSAPSIPTPAYQSSPAGGHAPTPPTPAPRTMPPTKPQPPARPPPPVLPANRAPSATAPSPVGAGTAAPAPSQTPGSAPPPQAQGPPYPTYPGYPGYCQMPMPMGYNPYAYGQYNMPYPPVYHQSPGQAPYPGPQQPSYPFPQPPQQSYYPQQ | – | 1.1 | 0.05
